Reference: patent US20070224620A1 (PROMEGA, published 2007)

B1: HaloTag (HT) alone (enzyme, Rhodococcus rhodochrous, UniProt P0A3G2 1-293, looked up)
chain: MSEIGTGFPFDPHYVEVLGERMHYVDVGPRDGTPVLFLHGNPTSSYLWRNIIPHVAPSHRCIAPDLIGMGKSDKPDLDYFFDDHVRYLDAFIEALGLEEVVLVIHDWGSALGFHWAKRNPERVKGIACMEFIRPIPTWDEWPEFARETFQAFRTADVGRELIIDQNAFIEGALPMGVVRPLTEVEMDHYREPFLKPVDREPLWRFPNELPIAGEPANIVALVEAYMNWLHQSPVPKLLFWGTPGVLIPPAEAARLAESLPNCKTVDIGPGLFLLQEDNPDLIGSEIARWLPAL
notes: Control bait without a fused partner, covalently captured on HaloLink resin; also called mutant dehalogenase protein
B2: GST-Frb (other)
chain: ILWHEMWHEGLEEASRLYFGERNVKGMFEVLEPLHAMMERGPQTLKETSFNQAYGRDLMEAQEWCRKYMKSGNVKDLTQAWDLYYHVFRRISK
modifications: fluorescently labeled using Lys-tRNA with FluoroTect Green (labelled lysines, positions not stated)
notes: domain: Frb domain of Frap; N-terminal GST fusion expressed in rabbit reticulocyte lysate; linker not described; also called Prey; Frb domain of Frap; not shown: GST, N-terminal fusion partner encoded by Flexi vector pFN2A (Promega)

Legend:
GST-cFos = biological target: T1, GST-cFos (UniProt P01100 1-380, fluorescently labeled using Lys-tRNA with FluoroTect Green (labelled lysines, positions not stated)); test: HaloLink resin pull-down, lane 3: HT alone as bait, no crosslinker; release of fluorescent prey read on gel
T1 construct: N-terminal GST fusion expressed in rabbit reticulocyte lysate; also called Prey; not shown: GST, N-terminal fusion partner encoded by Flexi vector pFN2A (Promega)
T1 sequence (P01100 whole entry, the tested form may be a part): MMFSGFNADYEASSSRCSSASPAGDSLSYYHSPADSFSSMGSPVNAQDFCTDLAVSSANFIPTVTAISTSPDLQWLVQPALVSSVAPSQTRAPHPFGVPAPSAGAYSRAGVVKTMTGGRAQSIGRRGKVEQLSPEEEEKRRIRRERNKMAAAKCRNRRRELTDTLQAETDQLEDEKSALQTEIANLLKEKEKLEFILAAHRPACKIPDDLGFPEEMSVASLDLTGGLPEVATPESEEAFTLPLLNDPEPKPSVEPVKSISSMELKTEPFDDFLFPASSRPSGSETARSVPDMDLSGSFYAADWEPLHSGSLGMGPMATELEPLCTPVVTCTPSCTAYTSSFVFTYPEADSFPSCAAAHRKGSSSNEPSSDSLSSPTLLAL

HaloTag (HT) alone = biological target: B1; test: HaloLink resin pull-down, lane 1: HT alone as bait, 2 uM rapamycin, no DTTSP; release of fluorescent prey read on gel; text: showed no background binding of Prey
Protocol: Remove final wash solution and add protein-protein crosslinked material to resin. Incubate at 22° C. for one hour. Wash resin 5×1 mL with 1×TBS+0.05% IGEPAL as described above. Remove final wash. At this point, the crosslinked protein-protein complex has been covalently captured and purified on the resin and can be resuspended in the desired buffer. In samples treated with the crosslinker DTTSP, resupend resin in 1×SDS Loading buffer containing 5 mM β-Me and boil at 95° C. for 5 minutes to reverse the protein-protein crosslinks. Analyse samples using SDS gel electrophoresis.

Row | Binder | binding result (GST-cFos) | binding result (HaloTag (HT) alone)
1 | B1 | no binding | 
2 | B2 |  | no binding
